# Results taken from the supplement of paper PMC10126150.
# ± gives the standard deviation of the averaged measurements.
# Tested on: ATP
# Assay: switch fluorescence ratio, 500 uM ATP over buffer (Cy3 cluster intensity, sum of 5 cycles each) (fold (ratio)); higher = stronger signal-on switching upon ATP binding; sequences stand for … in TCGTCGGCAGCGTCAGATGTGTATAAGAGACAGTTTTTTTTTTTTTTTTTTTTTTTTT…TC
# Settings: aptamer strand: ATP DNA aptamer (quencher-CACCTGGGGGAGTATTGCGGAGGAAGG + anchor), 100 nM annealed; ATP concentration: 500 uM
# Summary of the method: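 Between each of five buffer/ATP cycles, the flow-cell was stripped with NaOH and re-annealed. Each cycle imaged Cy3-labelled switching-strand clusters, annealed to 100 nM quencher-labelled ATP aptamer on a modified Illumina MiSeq flow-cell, first in selection buffer and then after 15 min with 500 uM ATP at 22 °C. The fluorescence ratio is summed target-cycle over summed buffer-cycle Cy3 intensity per cluster, averaged per switch-domain sequence, with clusters outside 100-1000 RFU excluded.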
# 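Note: ATP exposure 15 min at 22 °C before imaging.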
row,Sequence,switch fluorescence ratio
1,CGATGAGGTA,0.968 ± 0.06
2,TTATTTTAGC,0.976 ± 0.019
3,ATACTATATT,1.05 ± 0.017
4,GCGAGAATAG,1 ± 0.014
5,TTGTAAGATT,0.987 ± 0.0048
6,TTTTTGCTTC,1.02 ± 0.043
7,GAGTATGCAT,0.984 ± 0.023
8,AATGGCTGGG,0.999 ± 0.043
9,CAAAACGTAG,1.01 ± 0.025
10,TTTCGGGTAC,1.2 ± 0.22
11,ATGGGGATTA,0.9956 ± 0.0092
12,TTACTTTATT,1.05 ± 0.053
13,CGAAGAGGGA,0.9864 ± 0.0081
14,AAAGCCTTGG,0.973 ± 0.021
15,GATCAGTGGC,1.05 ± 0.071
16,GACCCGGGTG,2.98 ± 0.18
17,TGCGCCTCAG,1.08 ± 0.074
18,TATTCTAATT,1.004 ± 0.006
19,GCAGTATTTT,1.0075 ± 0.00081
20,GAGTATTGGG,0.9897 ± 0.0087
21,ACGCTTTGCA,0.987 ± 0.01
22,TATGGGGGTA,1.01 ± 0.029
23,CTGGTAATAT,1.15 ± 0.041
24,TTTGCGACCT,1.13 ± 0.066
25,AAGTAAGTGG,1.03 ± 0.042

row,Sequence,switch fluorescence ratio
1,ACCCCGGTCT,1.04 ± 0.011
2,TAAGAAGTAT,0.999 ± 0.034
3,ATTAAAAGGA,0.991 ± 0.073
4,AATGTAGACT,1.017 ± 0.0084
5,AGTCCAAGAG,0.9889 ± 0.0045
6,TGAAGGGGAG,1.01 ± 0.069
7,TCATAAAACC,1.09 ± 0.11
8,TTACTATGTA,1.02 ± 0.019
9,TTTTTCGATA,1.06 ± 0.029
10,CGAGTTAAAT,1.01 ± 0.037
11,AGAGGGGTAA,0.998 ± 0.029
12,TTCGTATATA,1.01 ± 0.018
13,GTTAGCCTTG,1 ± 0.039
14,CATATTTAGG,0.949 ± 0.028
15,ATTTGTATTT,0.992 ± 0.026
16,TTCTATTTAA,1.02 ± 0.029
17,GTGGTATGCA,1.02 ± 0.074
18,AGAGGCCGTT,0.9965 ± 0.0074
19,TATCTGGTAG,1 ± 0.025
20,TGCGAATTCG,0.996 ± 0.037
21,TAGAGGAGTG,0.9599 ± 0.0086
22,TAGAGACTAA,0.979 ± 0.029
23,AGTAATTTGC,1.02 ± 0.012
24,TATGATTCAG,0.98 ± 0.012
25,CTGTATCAAG,0.999 ± 0.013

row,Sequence,switch fluorescence ratio
1,GGGGTCGATG,0.9847 ± 0.0042
2,GGGCGGTCTT,1.06 ± 0.097
3,ATTGGTTGGT,0.978 ± 0.048
4,GCGAGGAGTA,1.01 ± 0.024
5,ATCTGTGGA,1.015 ± 0.0024
6,AAATGGATAG,1.007 ± 0.0029
7,ACTCTTTCGG,1 ± 0.063
8,ATAGTGGTTT,1.02 ± 0.021
9,GGTAACGTAG,0.991 ± 0.022
10,ATACACGGCG,1.045 ± 0.0087
11,TTAAAGAGCT,1.014 ± 0.0028
12,GGTGTGGGGA,0.994 ± 0.025
13,CGGTACTCGA,0.993 ± 0.015
14,TTTTGGGTGG,0.988 ± 0.034
15,TTTTTTAGT,0.992 ± 0.027
16,CGGCAGGCAC,1.21 ± 0.037
17,GTATGAAATC,1.02 ± 0.036
18,TTGGGCTTTT,0.996 ± 0.017
19,AGTAAATATA,0.993 ± 0.022
20,ATTTGATCTG,0.985 ± 0.014
21,ATGGGGATCA,1.017 ± 0.0022
22,TGCCGATCAG,0.993 ± 0.05
23,GGTGCTGTCC,1.033 ± 0.0011
24,ATCCCTCATA,1.01 ± 0.018
25,GCGATAGACG,0.99 ± 0.022

row,Sequence,switch fluorescence ratio
1,GGGATGTTAA,0.976 ± 0.038
2,ACGTATAGAA,1.159 ± 0.0097
3,TACTTTTTTT,1.01 ± 0.037
4,ATACTTACTT,1.197 ± 0.011
5,GGGGGAGCCC,0.9896 ± 0.0091
6,AGGAAAATGT,0.984 ± 0.041
7,GTGCTTAATT,1 ± 0.05
8,GGGGGTGGAT,1 ± 0.025
9,TTGGGATGTG,0.986 ± 0.053
10,AATTGGGTTG,0.957 ± 0.026
11,ATTGGGGGTT,0.978 ± 0.018
12,GGTTAAGATG,0.986 ± 0.01
13,TGTAGGGGTG,0.987 ± 0.016
14,ACATACGGGG,1.3 ± 0.1
15,TTGGATAGTT,1.09 ± 0.16
16,TAGTTGTTGC,0.977 ± 0.021
17,CGGGAGACAT,1.01 ± 0.014
18,ACAGGGTGTC,1.05 ± 0.031
19,CCTCGACAGC,3.43 ± 0.42
20,ATGACGCGTC,0.982 ± 0.045
21,ATTTTTGACA,1.001 ± 0.0037
22,AGGCCGGTGC,1.04 ± 0.03
23,TACGCATAAT,1.37 ± 0.014
24,TGGTTTTTAC,1.01 ± 0.038
25,TTGGATTATG,1.01 ± 0.012

row,Sequence,switch fluorescence ratio
1,GCCTTTGCAT,1.04 ± 0.039
2,GGGCAAGGCG,1.006 ± 0.0092
3,TCCGGGGGAG,1 ± 0.023
4,GGATGTCCAG,0.947 ± 0.028
5,TGGTATAACG,0.964 ± 0.025
6,GACTTGAGTT,0.9971 ± 0.0091
7,CTTGGGGTGC,1.07 ± 0.094
8,CATAGGGACG,0.989 ± 0.083
9,ATATTTGGCG,1.007 ± 0.0029
10,CCGAATAGTT,1.18 ± 0.14
11,TTTGTGGTAG,0.984 ± 0.011
12,TGGGGAAATT,1.01 ± 0.022
13,TCATCTACAG,1.02 ± 0.013
14,TGGTTGAAAA,0.875 ± 0.033
15,TCGATGGCAG,1.059 ± 0.0033
16,TATCACATTG,0.992 ± 0.039
17,GTGGGGGTAT,1.05 ± 0.15
18,GAGGGGGCGT,1.01 ± 0.04
19,AGGTCGGGCG,0.982 ± 0.026
20,TGAAACGTAT,0.993 ± 0.023
21,ATGCACCAGG,2.55 ± 0.19
22,AGTATAATTT,0.978 ± 0.045
23,GAAAATAGGT,0.99 ± 0.024
24,CGTGTGAGAG,0.986 ± 0.021
25,AGGAGGGGGA,1.03 ± 0.045

row,Sequence,switch fluorescence ratio
1,TAGAGGCTAA,0.977 ± 0.013
2,TAAAAAACCG,1.03 ± 0.025
3,AGGGGGGTCG,0.992 ± 0.072
4,TAAGGGTTCT,0.9916 ± 0.0089
5,GGCTTCTGGG,0.98911 ± 0.00037
6,ATTGGGGGTA,0.977 ± 0.028
7,TAGAAAGCCT,1.06 ± 0.045
8,TGGATAGAGT,0.985 ± 0.02
9,GGATTCTAGG,0.969 ± 0.02
10,CTGCAAGGGA,1.06 ± 0.051
11,CTTTTAAGGC,1.1 ± 0.15
12,CGGGGTGAAC,0.994 ± 0.038
13,TTTGATAAAG,1.03 ± 0.092
14,TTTTGATTTG,1 ± 0.034
15,GGGTTTTTGT,1.04 ± 0.055
16,GTTTTGGGAT,1.02 ± 0.031
17,CCTTGTCGG,1.07 ± 0.083
18,GATTTGATGA,0.9959 ± 0.002
19,GGTAAGATGG,0.995 ± 0.032
20,ATGGCTAATA,0.9806 ± 0.0057
21,TTTACCGCTA,1.94 ± 0.58
22,GACGACTTGA,1.02 ± 0.042
23,ATCCAGGGGT,1.06 ± 0.022
24,TCTGGGGTGT,1.13 ± 0.18
25,GACAAATGTG,0.99815 ± 0.00093

row,Sequence,switch fluorescence ratio
1,AGGTTAAGGA,1.04 ± 0.087
2,TGGTTATTAT,0.991 ± 0.015
3,ATGTAAAATT,0.972 ± 0.038
4,CTGGCTGGTG,1.1 ± 0.026
5,TGATGGGGG,0.981 ± 0.016
6,GAAAGTCGGA,0.998 ± 0.066
7,AAATGCGTTA,1.01 ± 0.02
8,TTTCTGTATC,1.04 ± 0.044
9,GGATAGTGGT,1.01 ± 0.0079
10,ATCGAAGGTA,0.985 ± 0.013
11,GTTACTTGCC,0.992 ± 0.039
12,TTTATAGAGT,1.03 ± 0.029
13,CCACTAGTCG,1.02 ± 0.016
14,TTGGTGATTG,0.976 ± 0.014
15,CGGGGGATCT,1.01 ± 0.038
16,TAACGTAGGA,1.07 ± 0.031
17,CCAACGGGGA,1.1 ± 0.085
18,CGGGCAAGGG,1.19 ± 0.029
19,TTTTTCGGGG,1.02 ± 0.032
20,AATGAAAAGT,0.992 ± 0.017
21,GAAAGTGCTA,1.07 ± 0.03
22,AAGCCGTGCG,1.02 ± 0.014
23,GATATTTCGG,1.011 ± 0.0024
24,CGAATAGGCT,1.006 ± 0.0029
25,CATAGTATGT,0.973 ± 0.067

row,Sequence,switch fluorescence ratio
1,CAACTAAATT,1.01 ± 0.025
2,CCAATAGACG,1.01 ± 0.03
3,GCAGATAGGG,0.998 ± 0.016
4,AACTATATCT,1.05 ± 0.021
5,GGAGAATATT,1.02 ± 0.059
6,TTGGAAAGGT,1.1 ± 0.16
7,ATAAGTGAAT,1.01 ± 0.013
8,GGGGGGGAGT,0.995 ± 0.02
9,TAAGATGGAG,1 ± 0.021
10,GGGGCCGTTT,0.973 ± 0.03
11,TATTTGATGG,0.992 ± 0.021
12,TTATAGCCCA,1.0151 ± 0.00025
13,TATCTTTCGG,0.997 ± 0.021
14,GAAAGCCCGT,0.989 ± 0.021
15,AGATGTTAGG,0.981 ± 0.029
16,TATGGAGATA,0.999 ± 0.013
17,ACAGGTTGCG,0.9971 ± 0.0082
18,ACCAATGTTC,1.03 ± 0.033
19,TAGGCTGAGG,1.002 ± 0.0063
20,GTTGGAGGCT,0.989 ± 0.096
21,TTCCTAAAGA,1.06 ± 0.03
22,AGAATTCTAG,1.01 ± 0.022
23,CCAATAAATT,0.974 ± 0.018
24,GAGGATTTAA,1 ± 0.03
25,TTATAAAAGT,0.962 ± 0.011
